Source: patent US10501502B2, “Allophycocyanin alpha-subunit evolved labeling proteins (smURFPs)” (The Regents of the University of California, priority 2016, dated 2019)

Assays:
HEK293A cells = experiment: Fluorescence imaging of FPs in HEK293A cells with chromophore addition or HO-1 expression; format: cell-based; settings: smURFP/TDsmURFP in HEK293A cells
Description: smURFP codons were optimized for human cell expression, and the gene was created by GenScript. smURFP, TDsmURFP (created from mammalian-optimized smURFP), IFP1.4 (mammalian-optimized form^35), IFP2.0 (mammalian-optimized form^46), and iRFP713 (mammalian-optimized form^36) were PCR amplified using Phusion High-Fidelity DNA Polymerase (NEB) with primers containing 5′ HindIII and 3′ XhoI restriction enzyme sites. HindIII-HF and XhoI (NEB)-digested PCR fragments were gel purified (Zymoclean Gel DNA Recovery Kit) and were ligated (T4 DNA Ligase, Life Technologies) into a similarly digested pCDNA3-IRES-eGFP vector (bicistronic to express two FPs in the same cell). For creation of HO-1-expressing mammalian vec-tors, the Synechocystis HO-1 was used, and the codons were not optimized for mammalian expression. Synechocystis HO-1 was directly amplified from the pBAD vector using primers containing 5′ BsiWI and 3′ XbaI restriction enzyme sites. pCDNA3 smURFP, TDsmURFP, IFP1.4, IFP2.0, or iRFP713-IRES-eGFP vectors were digested with BsiWI and XbaI (NEB), dephosphorylated (SAP, Roche), gel purified (Zymoclean Gel DNA Recovery Kit), and ligated (T4 DNA Ligase, Life Technologies) with similarly digested, purified HO-1 PCR fragment. For creation of smURFP fusions, smURFP was PCR amplified using Phusion High-Fidelity DNA Polymerase (NEB) with primers containing 5′ AgeI and 3′ NotI restriction enzyme sites for N-terminal fusions or with primers containing 5′ AgeI and 3′ BspEI restriction enzyme sites for C-terminal fusions. mGeos2-VEL-ManII-N-10 (Addgene 57551) and Dronpa-PDHA1-N-10 (Addgene 57292) vectors were digested with AgeI and NotI (NEB) and mCherry-αTubulin-C-18 (Addgene 55148) and tdTomato-LaminB1-10 (Addgene 58107) were digested with AgeI and BspEI, dephosphorylated (SAP, Roche), gel purified (Zymoclean Gel DNA Recovery Kit), and ligated (T4 DNA Ligase, Life Technologies) with similarly digested, purified smURFP PCR fragment. HEK293A (Invitrogen, Life Technologies), HT1080 (ATCC), and PC3 (ATCC) cells were grown in Dulbecco's Modified Eagle's medium (DMEM, Corning), supplemented with 10% FBS (Atlanta Biologicals)+1×penicillin—streptomycin (Fisher Scientific), which is referred to as growth media, on poly-D-lysine-coated glass-bottom culture dishes (MatTek, No. P35G-0-14-C). The HEK cell line is listed in the ICLAC and NCBI biosample databases and is commonly misidentified as the HeLa cell line. For expression of exogenous fluorescent proteins, there is no problem if there is a contaminating cell line because no endogenous biology or therapeutic results are being determined. HEK293A cells were purchased from Invitrogen (Life Technologies), and all experiments are derived from the same expanded frozen stock without cell line authentication or mycoplasma detection. Cells were transfected using 2 μg of circular DNA+5 μl Lipofectamine 2000 (Life Technologies) in 2 ml Opti-MEM (Life Technologies) for 4-5 h, transfection media was discarded, and prewarmed growth media was added. Chromophores (5 mM in DMSO) were added at indicated concentrations to growth media, warmed for 10-15 min at 37° C., and added to cells. For multiple timepoints, incubations were staggered to maintain equivalent incubation. Prior to imaging, cells were washed 1×2 ml growth media, 2×2 ml imaging solution, and imaged in 2 ml imaging solution. Fluorescence imaging was performed on a Zeiss Axiovert 200M inverted microscope controlled by SlideBook software. FPs were imaged with the following settings: eGFP, EX/EM=495(10)/535(25) nm, tdTomato EX/EM=540(25)/595(50) nm; mCherry and mCardinal, EX/EM=580(20)/653(95) nm; smURFP and TDsmURFP, EX/EX=628(40)/680(30) nm; and IFP1.4, IFP2.0, and iRFP713, EX/EM=665(45)/725(50) nm. […]

[1] = FP purification and fluorescence characterization in vitro (spectra, extinction coefficient, quantum yield); format: physicochemical; settings: for Molecular Brightnes Relative to smURFP / Emission Maximum / Excitation Maximum / Extinction Coefficient / Quantum Yield: Table 4; for Emission Maximum / Excitation Maximum / Extinction Coefficient / Quantum Yield: evolved APCα FPs
Protocol: FP genes were expressed on a pBAD vector (Life Technologies) with a polyhistidine tag on the C terminus, cells were lysed with B-PER (Thermo Scientific), and purified using Ni-NTA (Qiagen) puri-fication. PCB (HO-1+PcyA) and BV (HO-1) incorporation in Escherichia coli was performed simultaneously during constitu-tively active FP expression. Extinction coefficient was determined by PCB or BV absorbance as described35,36 (Table 3, smURFP+BV and TDsmURFP+BV, and Table 2) or calculated for the apoproteins by determining the protein concentration by the BCA protein assay (Pierce), and a specific chromo-phore concentration was added (specified in the Purification of FP lacking chromophore and in vitro chromophore incorporation section) to get 1 and 2 chromophore species (Table 5, not including (Escherichia coli)). When FP chromophore (PCB or BV) was expressed in Escherichia coli, the PCB and BV Q band had absorbance that overlapped with detection of BCA or Bradford assay of 562 nm and 592 nm, respectively. We used the previously published protocols35,36, where there was no change of the BV absorbance at 390 nm when free in solution or attached to the FP. smURFP+BV denaturation with 1 M urea caused no change in the BV absorbance at 390 nm, but the Q band was reduced ˜20-fold. Therefore, the extinction coefficient of BV at 390 nm was used to calculate the concentration of holoprotein (FP+PCB or BV) concentration.
EX and EM spectra were obtained using SPEX Fluorolog fluorometer (Horiba). Absorbance spectra were obtained using UV-VIS Spectrophotometer Cary Eclipse (Varian) or UV-2700 (Shimadzu). Quantum yield was determined relative to Cy5. Incorporation rates of BV on 0.5 μM smURFP was performed by addition of smURFP to PBS alone or with 20% fetal bovine serum (FBS) and mixed by pipetting in a quartz cuvette. Chromophore was added last, mixed by pipetting, and fluorescence was recorded using SPEX Fluorolog fluorometer (Horiba). Photobleaching was characterized on bubbles of purified FP or Cy5 within mineral oil using light from a 150 W xenon arc lamp with 100% light through EX/EM=628(40)/680(30) nm for smURFP, TDsmURFP, and Cy5 or EX/EM=665 (45)/725 (50) nm for IFP 1.4 focused with a 40×, 1.2 numerical aperture C-Apochromat oil-immersion lens on a Zeiss Axiovert 200M inverted microscope. Photobleaching times were normalized to reflect an initial illumination intensity producing 1,000 photons per fluorescent molecule per second as previously described^37.
HO-1 was removed by digesting the pBAD vector (Life Technology) with MscI and PmeI (NEB). smURFP and TDsmURFP were expressed and purified as described above. No chromophore was present on smURFP and TDsmURFP (confirmed by UV, fluorescence imaging, and MS). For predominant fluorescent species+2 chromophores, a ten-fold excess of chromophore was added to smURFP and TDsmURFP. For predominant fluorescent species+1 chromophore, a quarter concentration of chromophore was added to smURFP and TDsmURFP. Chromophore was added in PBS+10% FBS at 37° C. overnight. smURFP+chromophore and TDsmURFP+chromophore were purified using NiNTA (Qiagen) to remove excess or noncovalently attached chromophore.

Escherichia coli = experiment: Fluorescence of FPs expressed in Escherichia coli; format: cell-based
Protocol: TeAPCα gene (codons optimized for Escherichia coli) was made by GenScript. Mutations were placed by random mutagenesis using GeneMorphII Random Mutagenesis Kit (Agilent Technologies). Screens for mutants that fluoresce with PCB or BV were performed by subcloning into a pBAD vector (Life Technologies) that expressed cyanobacteria Synechocystis HO-1 and Synechocystis PcyA genes for PCB production and Synechocystis HO-1 only for BV production, as previously described^34. Libraries were expressed in TOP 10 Electrocompetent Escherichia coli cells (Life Technologies) with addition of 0.2% arabinose to LB agar plates (FPs were constitutively expressed in Escherichia coli). Fluorescence was imaged on plates using a BioSpectrum AC Imaging System (UVP) with EX/EM=628(40)/690(50) nm for FPs+PCB, EX/EM=685(40)/710LP nm for rounds 4 and 5 FPs+BV, and EX/EM=650(13)/690(50) nm for Cy5-like FPs+BV (rounds 6-12). At round 6, 5-10 of the brightest colonies on each plate were combined in LB+0.2% arabinose, grown ˜18 h, mixture of plasmid DNA was purified, and TOP10 cells were transformed and plated on LB agar plates+0.2% arabinose. Fluorescence was screened on plates (as described above), 10-20 of the brightest colonies were screened in liquid culture fluorescence (FIG. 7a-e), plasmid DNA was purified, and DNA was sequenced. The plasmid DNA of 2-3 of the brightest FPs was chosen for mutagenesis for the subsequent round. When choosing DNA for subsequent mutagenesis rounds, genes with increased and/or novel silent DNA mutations were chosen over other DNA that had the same DNA and/or protein sequence of the previous round. Site-specific mutagenesis was performed using QuikChange Lightning Mutagenesis Kit (Agilent Technologies) to create smURFP (C4S mutation) and smURFP C52S.

Molecule | chromophore concentration required for fluorescence similar to 2.5 μM BVMe2 (HEK293A cells) | chromophore concentration reaching saturation of fluorescence (HEK293A cells) | extinction coefficient (EC) [1] | quantum yield (QY) [1] | red-shift of excitation and emission relative to R3-2+PCB [1] | Molecular Brightnes Relative to smURFP [1] | Emission Maximum [1] | Excitation Maximum [1] | Extinction Coefficient [1] | Quantum Yield [1] | fluorescence when expressed in E. coli (qualitative) (Escherichia coli) | fold brighter than R1+PCB (Escherichia coli; expressed in E. coli)
phycocyanobilin [PCB, reference compound] | ≥ 40 µM | – | – | – | – | – | – | – | – | – | – | –
C=CC1=C(C)/C(=C/C2=NC(=C\c3[nH]c(/C=C4/NC(=O)C(C)=C4C=C)c(C)c3CCC(=O)OC)/C(CCC(=O)OC)=C2C)NC1=O [BVMe2, biliverdin dimethylester, reference compound] | – | ≤ 2.5 µM | – | – | – | – | – | – | – | – | – | –
R5-2: evolved APCα FP, SEQ ID NO: 6, with BV (protein, biliverdin chromophore; smRUFP Variant Polypeptide) MKTCEQRVKIATLLSENEKKIVDKASQDLWRRRPDFIAPGGIAFSQRERALCLRDHRWYLHLITFCLLAGDKDPIESIGLIGIREMYNSLGVPVPGMMESIRCLKEASLSLLDEEDAKETAPYFDYIIKAMS | – | – | 71,000 M^−1cm^−1 | 5.3% | ~49 nm | 12% | 696 nm | 671 nm | 71,000 M^−1 cm^−1 | 5.3% | – | –
R6-6: evolved APCα FP, SEQ ID NO: 7, with BV (protein, biliverdin chromophore; smRUFP Variant Polypeptide) MKTCEQRVKIATLLSENEKKIVDKASQDLWRRRPDLIAPGGIAFSQRERALCLRDYGWYLHLITFCLLAGDKGPIESIGLIGIREMYNSLGVPVPGMMESIRCLKEASLSLLDEEDAKETAPYFDYIIKAMS | – | – | 190,000 M^−1cm^−1 | 9.6% | – | 56% | 676 nm | 648 nm | 190,000 M^−1 cm^−1 | 9.6% | – | –
TeAPCα: Trichodesmium erythraeum allophycocyanin α-subunit, nonfluorescent parent protein, SEQ ID NO: 1 (protein, smRUFP Variant Polypeptide) MKTGEQRVKIATLLSENEKKIVDKASQDLWRRRPDFIAPGGNAFGQRERALCLRDYGWYLRLITYGLLAGDKDPIESIGLIGVREMYNSLGVPVPGMVESIRCLKEASLSLLDEEDAKETAPYFDYIIQAMS | – | – | – | – | – | – | – | – | – | – | showed no fluorescence | –
R2-1 + PCB: evolved APCα FP, SEQ ID NO: 3, with PCB (protein, phycocyanobilin chromophore; smRUFP Variant Polypeptide) MKTGEQRVKIATLLSENEKKIVDKASQDLWRRRPDFIAPGGIAFGQRERALCLRDYGWYLRLITFCLLAGDKDPIESIGLIGVREMYNSLGVPVPGMVESIRCLKEASLSLLDEEDAKETAPYFDYIIQAMS | – | – | 65,000 M^−1cm^−1 | 7.2% | – | 14% | 648 nm | 626 nm | 65,000 M^−1 cm^−1 | 7.2% | lacked fluorescence with BV | 27 fold
